# T1: SBP-tagged ASXL1^450–1,300 (human, UniProt Q8IXJ9 450-1300)
# T1 construct: ASXL1, human, residues 450–1,300; cDNAs encoding SBP and ASXL1 450-1,300 cloned into pRK7-N-Flag; also called ASXL1 (residues 450–1,300); ASXL^450–1,300; source: HEK293T, overexpressed, immobilized to Streptavidin beads
# T1 sequence (looked up): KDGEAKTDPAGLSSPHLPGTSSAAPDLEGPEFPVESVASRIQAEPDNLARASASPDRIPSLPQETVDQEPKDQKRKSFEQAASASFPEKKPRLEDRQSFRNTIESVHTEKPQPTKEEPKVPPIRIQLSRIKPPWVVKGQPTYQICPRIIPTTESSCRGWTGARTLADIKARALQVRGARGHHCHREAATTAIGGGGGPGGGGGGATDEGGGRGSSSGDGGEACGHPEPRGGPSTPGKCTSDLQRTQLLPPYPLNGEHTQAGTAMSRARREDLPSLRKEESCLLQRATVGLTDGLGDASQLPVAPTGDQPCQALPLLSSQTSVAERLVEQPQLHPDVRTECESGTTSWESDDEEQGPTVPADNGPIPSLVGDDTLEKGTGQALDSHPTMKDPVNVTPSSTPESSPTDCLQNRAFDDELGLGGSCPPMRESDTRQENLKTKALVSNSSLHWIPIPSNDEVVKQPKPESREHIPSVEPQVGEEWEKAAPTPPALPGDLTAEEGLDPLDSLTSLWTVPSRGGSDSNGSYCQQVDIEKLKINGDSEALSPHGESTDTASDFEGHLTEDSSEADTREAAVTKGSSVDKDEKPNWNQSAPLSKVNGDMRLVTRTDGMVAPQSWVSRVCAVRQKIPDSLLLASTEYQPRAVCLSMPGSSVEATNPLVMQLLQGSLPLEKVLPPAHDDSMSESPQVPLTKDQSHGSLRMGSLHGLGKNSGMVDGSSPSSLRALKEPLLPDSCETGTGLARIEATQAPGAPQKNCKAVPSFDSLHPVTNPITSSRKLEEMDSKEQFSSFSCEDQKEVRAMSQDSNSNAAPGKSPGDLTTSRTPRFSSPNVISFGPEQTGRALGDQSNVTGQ
# Molecular target: T1, SBP-tagged ASXL1^450–1,300
# Test: pull-down; SBP-tagged ASXL1^450–1,300 immobilized to Streptavidin beads, incubated with Flag-peptide-eluted FOXK1 at 4 °C for 3 h, washed 3 times, SDS-PAGE and Coomassie blue staining
# Conditions: both partners purified
binder,measurement,value
"Flag-tagged full-length FOXK1 protein (natural protein, human, UniProt P85037 1-733, looked up, FOXK1, human, full-length cDNA; Vector pRK7-N-Flag; source: HEK293T, overexpressed, purified by immunoprecipitation and eluted by Flag peptide; not shown: Flag, N-terminal, kept) MAEVGEDSGARALLALRSAPCSPVLCAAAAAAAFPAAAPPPAPAQPQPPPGPPPPPPPPLPPGAIAGAGSSGGSSGVSGDSAVAGAAPALVAAAAASVRQSPGPALARLEGREFEFLMRQPSVTIGRNSSQGSVDLSMGLSSFISRRHLQLSFQEPHFYLRCLGKNGVFVDGAFQRRGAPALQLPKQCTFRFPSTAIKIQFTSLYHKEEAPASPLRPLYPQISPLKIHIPEPDLRSMVSPVPSPTGTISVPNSCPASPRGAGSSSYRFVQNVTSDLQLAAEFAAKAASEQQADTSGGDSPKDESKPPFSYAQLIVQAISSAQDRQLTLSGIYAHITKHYPYYRTADKGWQNSIRHNLSLNRYFIKVPRSQEEPGKGSFWRIDPASEAKLVEQAFRKRRQRGVSCFRTPFGPLSSRSAPASPTHPGLMSPRSGGLQTPECLSREGSPIPHDPEFGSKLASVPEYRYSQSAPGSPVSAQPVIMAVPPRPSSLVAKPVAYMPASIVTSQQPAGHAIHVVQQAPTVTMVRVVTTSANSANGYILTSQGAAGGSHDAAGAAVLDLGSEARGLEEKPTIAFATIPAAGGVIQTVASQMAPGVPGHTVTILQPATPVTLGQHHLPVRAVTQNGKHAVPTNSLAGNAYALTSPLQLLATQASSSAPVVVTRVCEVGPKEPAAAVAATATTTPATATTASASASSTGEPEVKRSRVEEPSGAVTTPAGVIAAAGPQGPGTGE",binding result,binds
